The source of these data is patent US20130251724A1 (GlaxoSmithKline, published 2013).

T1: Human OSM (human, UniProt P13725 26-221)
T1 construct: Recombinant human OSM; also called hOSM; human Oncostatin M
T1 sequence: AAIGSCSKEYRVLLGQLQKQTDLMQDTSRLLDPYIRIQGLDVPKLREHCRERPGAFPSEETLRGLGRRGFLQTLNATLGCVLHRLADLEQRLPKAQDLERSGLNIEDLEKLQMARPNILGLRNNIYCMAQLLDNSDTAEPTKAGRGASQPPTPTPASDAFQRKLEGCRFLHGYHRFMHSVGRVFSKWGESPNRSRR

B1: Pos 95 Ala (antibody, V domains shown)
VH: EVQLVESGGGLVQPGGSLRLSCAASGFTFSSYAMSWVRQAPGKGLEWVATISDGGSFTYYLDNVRGRFTISRDNAKNSLYLQMNSLRAEDTAVYYCARAVGHTTFWYFDVWGRGTLVTVSS
VL: DIVMTQSPDSLAVSLGERATINCRASKSVSAAGYNFMHWYQQKPGQPPKVLIYYASNLESGVPDRFSGSGSGTDFTLTISSLQAEDVAVYYCLHSREFPFTFGGGTKVEIKR
notes: the same holds for f2 to f171; also called CDRH3 D95>A
B2: Pos 95 Met (antibody, V domains shown)
VH: EVQLVESGGGLVQPGGSLRLSCAASGFTFSSYAMSWVRQAPGKGLEWVATISDGGSFTYYLDNVRGRFTISRDNAKNSLYLQMNSLRAEDTAVYYCARMVGHTTFWYFDVWGRGTLVTVSS
VL: DIVMTQSPDSLAVSLGERATINCRASKSVSAAGYNFMHWYQQKPGQPPKVLIYYASNLESGVPDRFSGSGSGTDFTLTISSLQAEDVAVYYCLHSREFPFTFGGGTKVEIKR
notes: also called CDRH3 D95>M
B3: Pos 95 His (antibody, V domains shown)
VH: EVQLVESGGGLVQPGGSLRLSCAASGFTFSSYAMSWVRQAPGKGLEWVATISDGGSFTYYLDNVRGRFTISRDNAKNSLYLQMNSLRAEDTAVYYCARHVGHTTFWYFDVWGRGTLVTVSS
VL: DIVMTQSPDSLAVSLGERATINCRASKSVSAAGYNFMHWYQQKPGQPPKVLIYYASNLESGVPDRFSGSGSGTDFTLTISSLQAEDVAVYYCLHSREFPFTFGGGTKVEIKR
notes: also called CDRH3 D95>H
B4: Pos 95 Leu (antibody, V domains shown)
VH: EVQLVESGGGLVQPGGSLRLSCAASGFTFSSYAMSWVRQAPGKGLEWVATISDGGSFTYYLDNVRGRFTISRDNAKNSLYLQMNSLRAEDTAVYYCARLVGHTTFWYFDVWGRGTLVTVSS
VL: DIVMTQSPDSLAVSLGERATINCRASKSVSAAGYNFMHWYQQKPGQPPKVLIYYASNLESGVPDRFSGSGSGTDFTLTISSLQAEDVAVYYCLHSREFPFTFGGGTKVEIKR
notes: also called CDRH3 D95>L
B5: Pos 95 Gln (antibody, V domains shown)
VH: EVQLVESGGGLVQPGGSLRLSCAASGFTFSSYAMSWVRQAPGKGLEWVATISDGGSFTYYLDNVRGRFTISRDNAKNSLYLQMNSLRAEDTAVYYCARQVGHTTFWYFDVWGRGTLVTVSS
VL: DIVMTQSPDSLAVSLGERATINCRASKSVSAAGYNFMHWYQQKPGQPPKVLIYYASNLESGVPDRFSGSGSGTDFTLTISSLQAEDVAVYYCLHSREFPFTFGGGTKVEIKR
notes: also called CDRH3 D95>Q
B6: Pos 95 Gly (antibody, V domains shown)
VH: EVQLVESGGGLVQPGGSLRLSCAASGFTFSSYAMSWVRQAPGKGLEWVATISDGGSFTYYLDNVRGRFTISRDNAKNSLYLQMNSLRAEDTAVYYCARGVGHTTFWYFDVWGRGTLVTVSS
VL: DIVMTQSPDSLAVSLGERATINCRASKSVSAAGYNFMHWYQQKPGQPPKVLIYYASNLESGVPDRFSGSGSGTDFTLTISSLQAEDVAVYYCLHSREFPFTFGGGTKVEIKR
notes: also called CDRH3 D95>G
B7: Pos 95 Glu (antibody, V domains shown)
VH: EVQLVESGGGLVQPGGSLRLSCAASGFTFSSYAMSWVRQAPGKGLEWVATISDGGSFTYYLDNVRGRFTISRDNAKNSLYLQMNSLRAEDTAVYYCAREVGHTTFWYFDVWGRGTLVTVSS
VL: DIVMTQSPDSLAVSLGERATINCRASKSVSAAGYNFMHWYQQKPGQPPKVLIYYASNLESGVPDRFSGSGSGTDFTLTISSLQAEDVAVYYCLHSREFPFTFGGGTKVEIKR
notes: also called CDRH3 D95>E
B8: Humanised 10G8 H0L0 (antibody, V domains shown)
VH: EVQLVESGGGLVQPGGSLRLSCAASGFTFSNYAMSWVRQAPGKGLEWVATISDGGSFTYYLDNVRGRFTISRDNAKNSLYLQMNSLRAEDTAVYYCARDVGHTTFWYFDVWGRGTLVTVSS
VL: DIVMTQSPDSLAVSLGERATINCRASKSVSAAGYNFMHWYQQKPGQPPKLLIYYASNLESGVPDRFSGSGSGTDFTLTISSLQAEDVAVYYCLHSREFPFTFGGGTKVEIK
B9: Humanised 10G8 H1L3 (antibody, V domains shown)
VH: EMQLVESGGGLVQPGGSLRLSCAASGFTFSNYAMSWVRQAPGKGLEWVATISDGGSFTYYLDNVRGRFTISRDNAKNSLYLQMNSLRAEDTAVYYCARDVGHTTFWYFDVWGRGTLVTVSS
VL: DIVMTQSPDSLAVSLGERATINCRASKSVSAAGYNFMHWYQQKPGQPPKLLIYYASNLESGVPDRFSGSGSGTDFTLTISSLQAEDVAVYYCLHSREFPFTFGGGTNVEIK
B10: Humanised 10G8 H2L3 (antibody, V domains shown)
VH: EVQLVESGGGLVQPGGSLRLSCAASGFTFSNYAMSWVRQAPGKGLEWVATISDGGSFTYYLDNVRGRFTISRDNAKNSLYLQMNSLRAEDTAVYYCARDVGHTTFWYFDVWGSGTLVTVSS
VL: DIVMTQSPDSLAVSLGERATINCRASKSVSAAGYNFMHWYQQKPGQPPKLLIYYASNLESGVPDRFSGSGSGTDFTLTISSLQAEDVAVYYCLHSREFPFTFGGGTNVEIK
B11: Humanised 10G8 H1L2 (antibody, V domains shown)
VH: EMQLVESGGGLVQPGGSLRLSCAASGFTFSNYAMSWVRQAPGKGLEWVATISDGGSFTYYLDNVRGRFTISRDNAKNSLYLQMNSLRAEDTAVYYCARDVGHTTFWYFDVWGRGTLVTVSS
VL: DIVMTQSPDSLAVSLGERATINCRASKSVSAAGYNFMHWYQQKPGQPPKLLIYYASNLESGVPDRFSGSGSGTDFTLTISSLQAEDVVVYYCLHSREFPFTFGGGTKVEIK
B12: Humanised 10G8 H2L2 (antibody, V domains shown)
VH: EVQLVESGGGLVQPGGSLRLSCAASGFTFSNYAMSWVRQAPGKGLEWVATISDGGSFTYYLDNVRGRFTISRDNAKNSLYLQMNSLRAEDTAVYYCARDVGHTTFWYFDVWGSGTLVTVSS
VL: DIVMTQSPDSLAVSLGERATINCRASKSVSAAGYNFMHWYQQKPGQPPKLLIYYASNLESGVPDRFSGSGSGTDFTLTISSLQAEDVVVYYCLHSREFPFTFGGGTKVEIK
B13: Humanised 10G8 H0L3 (antibody, V domains shown)
VH: EVQLVESGGGLVQPGGSLRLSCAASGFTFSNYAMSWVRQAPGKGLEWVATISDGGSFTYYLDNVRGRFTISRDNAKNSLYLQMNSLRAEDTAVYYCARDVGHTTFWYFDVWGRGTLVTVSS
VL: DIVMTQSPDSLAVSLGERATINCRASKSVSAAGYNFMHWYQQKPGQPPKLLIYYASNLESGVPDRFSGSGSGTDFTLTISSLQAEDVAVYYCLHSREFPFTFGGGTNVEIK
B14: Humanised 10G8 H2L0 (antibody, V domains shown)
VH: EVQLVESGGGLVQPGGSLRLSCAASGFTFSNYAMSWVRQAPGKGLEWVATISDGGSFTYYLDNVRGRFTISRDNAKNSLYLQMNSLRAEDTAVYYCARDVGHTTFWYFDVWGSGTLVTVSS
VL: DIVMTQSPDSLAVSLGERATINCRASKSVSAAGYNFMHWYQQKPGQPPKLLIYYASNLESGVPDRFSGSGSGTDFTLTISSLQAEDVAVYYCLHSREFPFTFGGGTKVEIK
B15: Humanised 10G8 H1L0 (antibody, V domains shown)
VH: EMQLVESGGGLVQPGGSLRLSCAASGFTFSNYAMSWVRQAPGKGLEWVATISDGGSFTYYLDNVRGRFTISRDNAKNSLYLQMNSLRAEDTAVYYCARDVGHTTFWYFDVWGRGTLVTVSS
VL: DIVMTQSPDSLAVSLGERATINCRASKSVSAAGYNFMHWYQQKPGQPPKLLIYYASNLESGVPDRFSGSGSGTDFTLTISSLQAEDVAVYYCLHSREFPFTFGGGTKVEIK
B16: Humanised 10G8 H0L2 (antibody, V domains shown)
VH: EVQLVESGGGLVQPGGSLRLSCAASGFTFSNYAMSWVRQAPGKGLEWVATISDGGSFTYYLDNVRGRFTISRDNAKNSLYLQMNSLRAEDTAVYYCARDVGHTTFWYFDVWGRGTLVTVSS
VL: DIVMTQSPDSLAVSLGERATINCRASKSVSAAGYNFMHWYQQKPGQPPKLLIYYASNLESGVPDRFSGSGSGTDFTLTISSLQAEDVVVYYCLHSREFPFTFGGGTKVEIK

One assay concerns the target T1, Human OSM. In words: SPR (ProteOn XPR36 or Biacore T100), captured supernatant, OSM as analyte. The method, then:
The initial kinetic analyses for the CDRH3 screen were carried out on the ProteOn XPR36 (Biorad Laboratories) and certain supernatants were selected for more accurate kinetic analysis on the BiaCore T100.
For the ProteOn analysis, anti-human IgG (GE Healthcare/Biacore BR-1008-39) was coupled to a GLM chip (Biorad Laboratories 176-5012) by primary amine coupling. The CDRH3 variants were captured directly on to this surface and recombinant human OSM was passed over the captured antibody surface at 256, 64, 16, 4 and 1 nM, with a buffer injection alone (i.e. 0 nM) used to double reference the binding curves. Following the OSM binding event, the capture surfaces were regenerated: with 3M MgCl₂ the regeneration removed the previously captured antibody ready for another cycle of capture and binding analysis. The data was then fitted to the 1:1 model (with mass transport) inherent to the ProteOn analysis software. The run was carried out using HBS-EP (Biacore/GE-Healthcare BR-1006-69) and the analysis temperature was 25° C.
A similar method was used for analysis of constructs using the Biacore T100, anti-human IgG (GE Healthcare/Biacore BR-1008-39) was coupled to a CM5 chip (GE Healthcare/Biacore BR-1006-68) by primary amine coupling, antibodies were captured on this surface and recombinant human OSM was passed over the captured antibody surface at 256, 64, 16, 4 and 1 nM, with a buffer injection alone (i.e. 0 nM) used to double reference the binding curves. Regeneration was by using pulses of 3M 3M MgCl₂ or 100 mM phosphoric acid or using both reagents. The data was fitted to the 1:1 model inherent to the Biacore T100 analysis software. The run was carried out using HBS-EP (Biacore/GE-Healthcare BR-1006-69) and the analysis temperature was 25° C.
(In general: In SPR one partner is held on a chip, and binding of the other changes the refractive index at the surface.)
The molecule B1 gave a Kd of 0.576 nM.
For B2, the dissociation constant Kd is 0.649 nM.
In the case of B3, the Kd was 0.499 nM.
As to B4, binding was characterised by a dissociation constant (Kd) of 0.568 nM.
Same read-out and setting: with B5 the figure was 0.57 nM; with B6, 0.517 nM.
The molecule B7 had a Kd of 0.785 nM.

The target in a further assay is T1, Human OSM. As to the kind of experiment: BIAcore kinetics, transfection supernatant.
Regarding B8, the Kd stood at 0.435 nM, the koff was determined as 0.00016 s⁻¹ and the kon stood at 369000 M⁻¹ s⁻¹.
As to B9, the Kd turned out to be 0.344 nM, the koff was 0.000127 s⁻¹ and the kon was determined as 371000 M⁻¹ s⁻¹.
Turning to B10, the Kd worked out at 0.398 nM, the koff worked out at 0.00015 s⁻¹ and the kon is 376000 M⁻¹ s⁻¹.
For the molecule B11, the Kd is 0.445 nM, the koff was 0.000163 s⁻¹ and the kon is 365000 M⁻¹ s⁻¹.
B12 yielded a Kd of 0.387 nM, a koff of 0.000142 s⁻¹ and a kon of 368000 M⁻¹ s⁻¹.
In turn, B13 displayed a Kd of 0.388 nM, a koff of 0.000145 s⁻¹ and a kon of 374000 M⁻¹ s⁻¹.
B14 came in with a Kd of 0.398 nM, a koff of 0.000145 s⁻¹ and a kon of 363000 M⁻¹ s⁻¹.
The molecule B15 displayed a Kd of 0.425 nM, a koff of 0.000162 s⁻¹ and a kon of 381000 M⁻¹ s⁻¹.
B16 displayed a Kd of 0.375 nM, a koff of 0.000137 s⁻¹ and an association rate constant (kon) of 365000 M⁻¹ s⁻¹.

In general, Kd refers to the concentration at which binding is half-saturated. As usually defined, the koff is the rate constant with which the complex falls apart. A low value points to a long-lived complex. Broadly, the kon is the rate constant with which the complex forms. A higher kon goes with faster complex formation.
